The experiment concerns the target T1, gp78 RING (Homo sapiens, UniProt Q9UKV5).
T1 construct: The gp78-RING construct (aa 313 to 393) was generated by inserting a stop codon; GST (pGEX-4T-2 vector) (N); made in house
Nature of the experiment: NMR titration (1H-15N HSQC CSP) of 15N-UBE2G2 with or without G2BR with gp78 RING. The class given is binding. Conditions: overall value; 15N-UBE2G2 150 μM, gp78 RING 0-450 μM, 50 mM Tris-Cl pH 7.0, 0.5 mM TCEP, 100 μM zinc sulfate, 0.05% sodium azide; G2BR 1:1.1 where present; read-out: affinity for gp78 RING (Kd) by NMR CSP. The protocol: Fig 5 Titration of UBE2G2:G2BR with gp78 RING. Superposition of ^15N-^1H^N HSQC NMR spectra for apo-UBE2G2 and UBE2G2 bound to G2BR^AUP1 (A) or G2BR^gp78 (B). Spectra for UBE2G2 (150 μM) bound to G2BR were acquired at a 1:1.1 ratio. (C) Superposition of the spectra for apo-UBE2G2, UBE2G2:G2BR^AUP1, and UBE2G2:G2BR^gp78, illustrating the equivalence of perturbations between G2BR^AUP1 and G2BR^gp78. (D) Expansion of overlaid resonances corresponding to UBE2G2 residues showing fast exchange binding kinetics for gp78 RING binding to both UBE2G2:G2BR^AUP1 (left panels) and UBE2G2:G2BR^gp78 (right panels). Spectra were acquired at ratios of RING to UBE2G2:G2BR of 0, 0.33, 0.67, 1.0, 2.0, and 3.0. […]
UBE2G2 and gp78 RING used in titration experiments were expressed and purified as previously described. […] The changes in chemical shift for each peak in the 2D spectrum upon gp78 RING binding was calculated using the following CSP equation: ΔCSP=(ΔδN/5)^2+(ΔδH)^2/2 (1)
The CSPs calculated from Eq 1 were plotted versus the molar ratio of gp78 RING to UBE2G2:G2BR, and the data were fit using the following equation to calculate the dissociation constant (Kd), where x is the ligand-to-protein ratio: ΔCSP=ΔCSPmax/2*1+x+Kd/P−(1+x+Kd)^2/P−4x (2)

T1 sequence (Q9UKV5 313-393, one chain of several): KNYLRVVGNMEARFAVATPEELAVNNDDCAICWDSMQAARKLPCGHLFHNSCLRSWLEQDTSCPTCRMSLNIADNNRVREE

B1: UBE2G2: ERAD ubiquitin-conjugating enzyme (E2); purified in vitro, N-terminally MYC-tagged in cells (protein)
chain: MAGTALKRLMAEYKQLTLNPPEGIVAGPMNEENFFEWEALIMGPEDTCFEFGVFPAILSFPLDYPLSPPKMRFTCEMFHPNIYPDGRVCISILHAPGDDPMGYESSAERWSPVQSVEKILLSVVSMLAEPNDESGANVDASKMWRDDREQFYKIAKQIVQKSLGL
As for B1, the Kd (as a rule, a measure of binding affinity in units of concentration) was found to be 207 ± 6.4 µM.

Source of the values: publication PMC8699718, “A structurally conserved site in AUP1 binds the E2 enzyme UBE2G2 and is essential for ER-associated degradation” (PLoS Biology, 2021).
